The record followed here is the RNAGym collection of RNA variant scans (doi:10.1093/molbev/msab373).

Sequences and labels used below:
B1: Azoarcus group I ribozyme (parent)
chain: GUGCCUUGCGCCGGGAAACCACGCAAGGGAUGGUGUCAAAUUCGGCGAAACCUAAGCGCCCGCCCGGGCGUAUGGCAACGCCGAGCCAAGCUUCGGCGCCUGCGCCGAUGAAGGUGUAGAGACUAGACGGCACCCACCUAAGGCAAACGCUAUGGUGAAGGCAUAGUCCAGGGAGUGGCGAAAGUCACACAAACCGG

In this series the parent is B1. As to the kind of experiment: reverse-splicing fitness (ratio to wild type); higher = more active; in vitro selection; Mg2+ level not given. The method in brief: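 An in vitro group I ribozyme library with randomized positions was T7-transcribed and gel-purified. In triplicate, 10 pmol RNA in EPPS pH 7.5 was reacted with 50 pmoles of a 30-nt RNA substrate for 1 h at 37 °C across several added MgCl2 levels (1–48 mM), then stopped with EDTA. Products were reverse transcribed from a substrate-complementary primer, PCR-amplified and sequenced (HiSeq 4000). Fitness is a variant's read proportion after selection over that before, normalised to wild type.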
For C82U A111U A145G C150G C169A U176G, the reverse-splicing fitness worked out at 0.0074.
As for A111G A120G C150U U176A, the reverse-splicing fitness amounted to 0.0505.
The result for A120G C150A C169A U176A reads 0.0363.
The value for A120G C150A C169A U176G was 0.00569.
For the variant C82A A111C A120U A145C C150U C169A U176A, the reverse-splicing fitness came to 0.00309.
The result for C82A A111U A145U C150U U176C reads 0.0933; that for C82G A111U A120C A145G C150U, 0.0415; that for C82U A111U A145C C150A C169U U176G, 0.00574.
Turning to C82U A111U A120G A145G C150A, the reverse-splicing fitness was found to be 0.00801.
The result for C82A A111G A120C A145C C150U C169A U176A reads 0.0199; that for C82A A120C A145C C169U, 0.0188.
The value for C82A A111U A145G C169G U176G was 0.00674; that for C82A A111U A145C C150A C169G was 0.00849; that for C82G A120U A145U U176C was 0.116.
Take C82U A111C A120C C169A U176C: the reverse-splicing fitness was found to be 0.0189.
The value for C82U A111G A120G A145G C150A C169U U176C was 0.0156; that for C82A A120G C150A C169A U176G was 0.00586; that for C82G A111G A120C A145C C150U U176A was 0.0141.
The result for C82U A120G A145C C169U U176G reads 0.00314.
The value for C82A A120U A145C C150A C169A U176A was 0.00185; that for C82G A111U A145U C150A C169U U176A was 0.0141.
For A120G C150A C169U U176C, the reverse-splicing fitness was 0.0621.
The result for C82G A145U C169G U176G reads 0.00439; that for C82A A111U A120C A145G C150G C169G U176A, 0.0112.
The result for C82A A111G C150U C169U U176C reads 0.0136; that for C82G A111G A145C C150G C169A U176C, 0.0105.
For A120C A145C, the reverse-splicing fitness is 0.783.
The value for C82G A111U A120U A145U C150A C169A U176G was 0.00209; that for C82U A111U A120U C150U C169G U176A was 0.00732; that for A111C A120C A145C C150A C169U U176C was 0.0108.
The result for C82U A111C U176A reads 0.0847.
The result for A111U A120C A145C C169A U176C reads 0.00538.
With C82A A111U A120G A145U C150U U176G, the reverse-splicing fitness was determined as 0.00672.
The result for C82G A111C A120G A145G C150A C169U U176A reads 0.014.
As to C82U A111C A120U C150U C169U U176G, the reverse-splicing fitness was 0.00197.
The value for C82U A111C A145C C150G C169G U176C was 0.00811; that for C82U A111G A120U C169U U176G was 0.0017.
For C82A A111G A120U A145U U176C, the reverse-splicing fitness stood at 0.0146.
The value for C82A A111C A120G C150U C169U U176C was 0.0155; that for C82U A111G A120G A145G C150U C169U U176A was 0.0187; that for C82A A111G A120G A145C C150A C169A was 0.00942.
Take A111G A145C C150A C169G U176C: the reverse-splicing fitness was 0.0114.
With C82G A111G A145C C150G U176A, the reverse-splicing fitness came out at 0.0197.
The result for C82G A111U A120U A145U C150G U176A reads 0.00373; that for C82G A111C A120G C150G C169U, 0.00835.
As to C82G A111G A120C C169A, the reverse-splicing fitness turned out to be 0.0101.
The value for C82U A111G A120U A145U C150G C169U U176A was 0.00271.
The value for C82U A111C C169A U176G was 0.00617; that for C82A A111G A120C A145G C169G U176C was 0.0275.
The result for C82A A111G A120C A145G C150G C169U U176G reads 0.00802; that for C82A A145C, 0.586.
On to C82U A111C C150U C169U, for which the reverse-splicing fitness was found to be 0.0116.
The result for C82U A120C A145U U176A reads 0.0458; that for C82U A111G A120C A145U C150G C169U U176G, 0.00471; that for C82U A120G C150A U176C, 0.0166.
Take C82A A111G A120C A145G C150U U176G: the reverse-splicing fitness amounted to 0.00916.
The value for C82U A111U A120G A145U C169A was 0.00696; that for C82G A111U A145C C150G U176G was 0.00504; that for A111C A120G A145G C150U C169U was 0.139.
The result for C82G A120G A145U C169U U176C reads 0.0176; that for A120G C150U C169A, 0.29.
In the case of C82U A145C C150A C169U, the reverse-splicing fitness stood at 0.00854.
The result for A111G A120G A145U C150A C169U U176C reads 0.0198; that for C82U A111G A120U A145C C150A U176A, 0.00269.
For C82U A111C A120C A145C C150A C169A U176A, the reverse-splicing fitness is 0.0113.
The result for C82A A111G A120G A145G C150U C169G U176A reads 0.0157; that for C82A A111U A145C C150G C169G, 0.00746; that for C82A A111U A120G U176A, 0.0127.
A111U A120C A145G C150G U176A: the reverse-splicing fitness worked out at 0.0125.
The result for C82G A145U C150G C169A reads 0.00874; that for C82A A111C A120U A145U C150U C169U U176G, 0.00288.
The value for A111C A120G A145U C150A C169A was 0.0145.
The result for A111U A120U A145U C150G C169A U176G reads 0.00255.
Regarding C82A A145C C169G U176C, the reverse-splicing fitness worked out at 0.0138.
The result for C82A reads 0.658.
As for C82A A120G A145C C150U C169G U176G, the reverse-splicing fitness came to 0.00468.
Regarding C82A A111G A120C A145G C150G C169G, the reverse-splicing fitness turned out to be 0.00734.
The value for C82G A145U C150A U176C was 0.0384.
With A120C C150A C169G U176G, the reverse-splicing fitness came to 0.00418.
The value for C82G A111U A120G C150G U176A was 0.00658; that for C82U A120G C150U C169G U176A was 0.015.
The value for A111C A145U C150U C169G U176A was 0.0147.
The value for C82G A111U A120G A145C C150G C169U U176G was 0.00569; that for C82G A120G A145C C150U C169G U176C was 0.0128.
